Reference: the supplement of paper PMC9112550, “Optimization of the antimicrobial peptide Bac7 by deep mutational scanning” (BMC Biology, 2022)

tested on: Escherichia coli TOP10; experiment: shrunken log2 fold change of peptide-encoding DNA abundance (4.5 h post-induction vs induction); higher = less antimicrobial activity (less host growth inhibition); conditions: time post-induction: 4.5 h; library: site-saturation at positions 5, 18, 19, 20
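Also: peptides expressed intracellularly from a pBAD plasmid library in pooled LB shake-flask culture, induced with 0.3% L-arabinose, DNA abundance read by NGS, three biological replicates, DESeq2 with apeglm shrinkage.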

Point of comparison: RRIRYRPPRLPRPRPRPVTHPRP, “shrunken log2 fold change” value 0.00542. Against it:
- RRIRNRPPRLPRPRPRPCQPPRP — within 0.2 log units, -0.0231
- RRIRRRPPRLPRPRPRPSAPPRP — higher, 0.418
- RRIRYRPPRLPRPRPRPCVPPRP — within 0.2 log units, -0.0398
- RRIRPRPPRLPRPRPRPCALPRP — within 0.2 log units, -0.0401
- RRIRERPPRLPRPRPRPHFKPRP — lower, -0.342
- RRIRNRPPRLPRPRPRPFPWPRP — within 0.2 log units, -0.084
- RRIRIRPPRLPRPRPRPEMMPRP — within 0.2 log units, 0.0516
- RRIRMRPPRLPRPRPRPEAFPRP — higher, 2.91
- RRIRFRPPRLPRPRPRPKRIPRP — lower, -0.442
- RRIRKRPPRLPRPRPRPDYRPRP — within 0.2 log units, -0.157
- RRIRDRPPRLPRPRPRPRYCPRP — lower, -0.351
- RRIRNRPPRLPRPRPRPAHFPRP — higher, 0.292
- RRIRPRPPRLPRPRPRPQKQPRP — lower, -0.294
- RRIRPRPPRLPRPRPRPCNDPRP — lower, -0.456
- RRIRGRPPRLPRPRPRPTWQPRP — higher, 0.731
- RRIRWRPPRLPRPRPRPAYYPRP — within 0.2 log units, -0.157
- RRIRLRPPRLPRPRPRPTLMPRP — within 0.2 log units, 0.0897
- RRIRQRPPRLPRPRPRPIVSPRP — within 0.2 log units, -0.0135
- RRIRNRPPRLPRPRPRPNCRPRP — within 0.2 log units, -0.0373
- RRIRTRPPRLPRPRPRPTKDPRP — lower, -0.244
- RRIRKRPPRLPRPRPRPNKAPRP — within 0.2 log units, 0.0692
- RRIRYRPPRLPRPRPRPKVSPRP — within 0.2 log units, -0.0576
- RRIRIRPPRLPRPRPRPQSIPRP — within 0.2 log units, -0.0763
- RRIRDRPPRLPRPRPRPRDRPRP — within 0.2 log units, 0.13
- RRIRWRPPRLPRPRPRPHHGPRP — lower, -0.234
- RRIRGRPPRLPRPRPRPFDPPRP — within 0.2 log units, 0.14
- RRIRGRPPRLPRPRPRPSEWPRP — higher, 0.393
- RRIRSRPPRLPRPRPRPWWEPRP — within 0.2 log units, -0.0921
- RRIRNRPPRLPRPRPRPHYFPRP — within 0.2 log units, -0.0132
- RRIRVRPPRLPRPRPRPPENPRP — within 0.2 log units, -0.0386
- RRIRSRPPRLPRPRPRPENKPRP — within 0.2 log units, -0.125
- RRIRIRPPRLPRPRPRPGVIPRP — within 0.2 log units, -0.0127
- RRIRKRPPRLPRPRPRPSCLPRP — lower, -0.307
- RRIRCRPPRLPRPRPRPETIPRP — within 0.2 log units, -0.0356
- RRIRMRPPRLPRPRPRPYAEPRP — within 0.2 log units, 0.0571
- RRIRLRPPRLPRPRPRPDAWPRP — higher, 0.457
- RRIRRRPPRLPRPRPRPTWNPRP — higher, 0.951
- RRIRIRPPRLPRPRPRPMYWPRP — lower, -0.291
- RRIRHRPPRLPRPRPRPGHNPRP — within 0.2 log units, -0.166
- RRIRYRPPRLPRPRPRPRVQPRP — lower, -0.617
- RRIRKRPPRLPRPRPRPDHCPRP — within 0.2 log units, 0.00904
- RRIRIRPPRLPRPRPRPPHRPRP — within 0.2 log units, -0.144
- RRIRARPPRLPRPRPRPPYMPRP — lower, -0.467
- RRIRDRPPRLPRPRPRPDHPPRP — lower, -0.76
- RRIRYRPPRLPRPRPRPQVKPRP — lower, -0.318
- RRIRPRPPRLPRPRPRPTMYPRP — within 0.2 log units, 0.125
- RRIRPRPPRLPRPRPRPELWPRP — higher, 0.889
- RRIRFRPPRLPRPRPRPVPFPRP — within 0.2 log units, -0.102
- RRIRFRPPRLPRPRPRPEHAPRP — higher, 0.243
- RRIRLRPPRLPRPRPRPERAPRP — higher, 0.705
- RRIRKRPPRLPRPRPRPMPDPRP — higher, 0.525
- RRIRQRPPRLPRPRPRPWTKPRP — within 0.2 log units, -0.00887
- RRIRLRPPRLPRPRPRPSRAPRP — within 0.2 log units, 0.0241
- RRIRRRPPRLPRPRPRPFSSPRP — within 0.2 log units, -0.0604
- RRIRSRPPRLPRPRPRPMFWPRP — higher, 0.332
- RRIRARPPRLPRPRPRPNSPPRP — within 0.2 log units, -0.138
- RRIRIRPPRLPRPRPRPIQPPRP — within 0.2 log units, -0.044
- RRIRHRPPRLPRPRPRPFIFPRP — lower, -0.656
- RRIRKRPPRLPRPRPRPLINPRP — within 0.2 log units, -0.149
